Experimental data: PMC1977871

target: 160 kd cell surface receptor (human (endogenous in MDA.MB.231 and 184A1)); experiment: radioligand binding; competition: 5 nM 125I-labelled TAA.62(T) on MDA.MB.231 monolayers with or without unlabelled peptide (cells preincubated with the growth factors), 2 h at 4 C, EBSS with 20 mM Hepes pH 7.4 and 1% BSA; specific binding as % of control

specific binding of 125I-TAA.62(T) (% of control) | Substance
102 % of control | epidermal growth factor (from UniProt P01133 971-1023) (ligand)
97 % of control | insulin-like growth factor (from UniProt P05019 49-118) (ligand)
98 % of control | transforming growth factor-alpha (from UniProt P01135 40-89) (ligand)
95 % of control | transforming growth factor-beta (ligand)
